This experiment concerns the target FPRL1 (formyl peptide receptor-like 1) inhibitory protein (FLIPr) (S. aureus) (UniProt Q2FZC0). As to the kind of experiment: BLI. For orientation: BLI is a label-free optical method that tracks binding on a fibre tip over time.

Chain of FPRL1 (formyl peptide receptor-like 1) inhibitory protein (FLIPr) (S. aureus) (Q2FZC0 25-133): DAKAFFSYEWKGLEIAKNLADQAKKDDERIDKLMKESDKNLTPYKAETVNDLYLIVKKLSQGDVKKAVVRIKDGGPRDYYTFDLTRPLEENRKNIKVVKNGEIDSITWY

On to “complement component 1q subcomponent A (C1QA) (from UniProt P02745 23-245) (natural protein)”, for which the equilibrium dissociation constant (Kd) is 3.2 nM. That is a single-digit nanomolar value.
In turn, “complement component 1q subcomponent B (C1QB) (from UniProt P02746 28-253) (natural protein)” showed a Kd of 2.1 nM.
“complement component 1q subcomponent C (C1QC) (from UniProt P02747 29-245) (natural protein)”: the Kd is 9.9 nM.

Usually Kd stands for the equilibrium constant for the complex coming apart. Read a high Kd as weaker binding.

These data come from PMC4908583.
